Where no end group is shown, it is not given here.
T1: purified Ric-8A (rat, UniProt Q80ZG1 1-530)
T1 sequence (looked up): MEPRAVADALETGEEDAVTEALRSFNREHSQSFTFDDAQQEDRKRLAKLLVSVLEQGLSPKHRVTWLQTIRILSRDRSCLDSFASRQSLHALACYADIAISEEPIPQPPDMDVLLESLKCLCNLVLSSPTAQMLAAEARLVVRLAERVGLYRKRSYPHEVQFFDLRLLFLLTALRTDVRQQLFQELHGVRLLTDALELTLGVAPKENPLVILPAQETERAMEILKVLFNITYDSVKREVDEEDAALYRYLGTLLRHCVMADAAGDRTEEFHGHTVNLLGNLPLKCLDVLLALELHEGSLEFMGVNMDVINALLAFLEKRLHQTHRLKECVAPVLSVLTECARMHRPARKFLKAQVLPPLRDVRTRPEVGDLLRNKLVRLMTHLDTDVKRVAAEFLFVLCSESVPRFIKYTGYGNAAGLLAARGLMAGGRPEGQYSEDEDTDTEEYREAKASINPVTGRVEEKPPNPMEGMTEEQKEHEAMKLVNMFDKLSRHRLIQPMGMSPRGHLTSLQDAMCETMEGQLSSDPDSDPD


How the values were obtained:
[1] = molecular target: Gαolf/13 SwII chimeric sensor (human); test: cell-based or functional assay
[2] = molecular target: Gαolf/i1 SwII chimeric sensor (human); test: cell-based or functional assay
purified Ric-8A = molecular target: T1, purified Ric-8A; test: differential scanning fluorimetry

folding of the Switch II chimeric Gαolf-RLuc sensor (luminescence) by Ric-8B [1] [% decrease]	folding of the Switch II chimeric Gαolf-RLuc sensor (luminescence) by Ric-8B [2]	Binder	maximal thermal shift (ΔTm) (purified Ric-8A) [°C]
50	88 % of Gαolf	phosphorylated Ric-8B (natural protein, mouse, UniProt Q80XE1-1 1-560, looked up, phosphoserine at 468, phosphothreonine at 473, and additional positions (Table S1)) MDEERALYIVRAGEAGAIERVLRDYSDKHRATFKFESADEDKRKKLCEGIFKVLVKEVPTTCQVSCLEVLRILSRDKKILVPVTTKENMQILLRLAKLHESDDSLEKVSEFPVIVESLKCLCNIVFNSQMAQQLSLELNLAAKLCNLLRKCKDRKFINDIKCFDLRLLFVLSLLHTDIRSQLRYELQGLPLLTQILESAFSIKWTDEYESAIDHNGPPLSPQETDCAIEALKALFNVTVDSWKVHKESDSHQFRVMAAVLRHCLLIVGPTEDKTEELHSNAVNLLSNVPVSCLDVLICPLTHEETAQEAATLDELPSDKTTEKDTALKNSTMVYNGMNMEAIHVLLNFMEKRIDKGSSYREGLTPVLSLLTECSRAHRNIRKFLKDQVLPPLRDVTNRPEVGSTVRNKLVRLMTHVDLGVKQIAAEFLFVLCKERVDSLLKYTGYGNAAGLLAARGLLAGGRGDNWYSEDEDTDTEEYKNAKPNINLITGHLEEPMPNPIDEMTEEQKEYEAMKLVNMLDKLSREELLKPMGLKPDGTITPLEEALSQYSVIEETSSDTD	
		RDVKDTILHDNLKQLMLQ-NH2 [Gα13 C-term amidated peptide]	3.6
